Measurements taken from paper PMC7556843 (2020).

Molecular target: Ub2 (Homo sapiens)
Test: ITC; values taken from Vincendeau et al.

Kd: 1.81 µM
B1: Human NEMO258-350 C347S (NEMO UBAN domain) (domain or fragment)
chain: MQLEDLKQQLQQAEEALVAKQEVIDKLKEEAEQHKIVMETVPVLKAQADIYKADFQAERQAREKLAEKKELLQEQLEQLQREYSKLKASSQES
modifications: linear (M1-linked) diubiquitin, two 76-residue units fused head to tail; the N-terminal His-tag present in the SAXS sample is left out
